Columns and labels:
[1] = target: T1, HA-PP4c (Mus musculus, UniProt P97470); assay: Immunoblotting of anti-HA immunoprecipitates of NIH3T3 cells, PP4c; format: binding
T1 construct: expressed in transfected cells; host or cells: NIH3T3 mouse fibroblasts, retroviral pBabe hygro HA-PP4c
T1 sequence (P97470 1-307): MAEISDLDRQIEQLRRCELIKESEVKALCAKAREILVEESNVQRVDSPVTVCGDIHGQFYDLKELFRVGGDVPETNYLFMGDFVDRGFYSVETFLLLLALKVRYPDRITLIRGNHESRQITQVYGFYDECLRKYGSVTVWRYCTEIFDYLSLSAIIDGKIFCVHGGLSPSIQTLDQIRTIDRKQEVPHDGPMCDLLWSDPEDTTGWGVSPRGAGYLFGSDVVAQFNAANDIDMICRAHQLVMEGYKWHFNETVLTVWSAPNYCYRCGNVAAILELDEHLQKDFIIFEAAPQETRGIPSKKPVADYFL
Source text: The catalytic subunits of protein phosphatase 4 (PP4c) and 6 (PP6c) are closely related to PP2Ac with approximately 50% sequence identity. PP2Ac, PP4c and PP6c share the C-terminal DYFL or YFL motif, respectively (FIG. 8A). Therefore, a potential cross-reactivity of 7C10-C5 with α-carboxymethylated PP4c and/or PP6c was examined and compared to another anti-carboxymethyl-PP2Ac antibody 2A10. 2A10 is a carboxymethyl-PP2Ac specific antibody that has been raised against a larger C-terminal PP2Ac peptide (amino acids 302-309, carboxymethylated Leu^309) and that has been shown before to cross-react with α-carboxymethylated PP4c (Lee (2014), Biochem Biophys Res Commun 452, 42-47). HA tagged human PP2Ac a, mouse HA PP4c or mouse HA PP6c from NIH3T3 mouse fibroblasts stably expressing these HA-tagged proteins were immunoprecipitated. The precipitated proteins were then analyzed by immunoblotting with anti-carboxymethyl-PP2Ac antibodies 7C10-C5 or 2A10.
Specifically, 500 μl corresponding to 1 mg of whole cell protein lysates of NIH3T3 mouse fibroblasts were incubated with anti-hemagglutinin (HA) antibody (clone 12CA5) crosslinked to BSA-coated protein A-Sepharose beads (GE-Healthcare) to immunoprecipitate HA-epitope tagged PP2Ac, PP4c or PP6c for 1 h. […]

[2] = target: α-carboxymethylated PP2Ac (Homo sapiens, UniProt P67775); assay: IHC tissue microarray analysis of localized and metastatic prostate cancer tissue, Allred scoring; set-up: IHC tissue microarray analyses of prostate cancer tissue with the 7C10-C5 antibody; from tissue; host or cells: localized and metastatic prostate cancer tissue (tissue microarray, FFPE)
Sequence of α-carboxymethylated PP2Ac (P67775 whole entry): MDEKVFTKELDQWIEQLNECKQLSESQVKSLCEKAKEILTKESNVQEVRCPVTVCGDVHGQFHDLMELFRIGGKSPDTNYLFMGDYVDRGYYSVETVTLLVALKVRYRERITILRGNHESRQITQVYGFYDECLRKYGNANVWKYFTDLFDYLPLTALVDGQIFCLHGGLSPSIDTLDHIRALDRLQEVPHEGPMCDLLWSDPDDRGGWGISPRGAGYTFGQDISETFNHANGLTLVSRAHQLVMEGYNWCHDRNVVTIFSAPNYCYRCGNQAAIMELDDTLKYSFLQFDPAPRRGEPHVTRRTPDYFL
Experimental: Immunohistochemical staining was performed on the DAKO Autostainer (DAKO, Carpinteria, Calif.) using Envision+ or liquid streptavidin-biotin and diaminobenzadine (DAB) as the chromogen. De-paraffinized sections were labeled with mouse monoclonal antibody 7C10-C5 (1:200) overnight at 4 C. Microwave 10 mM Tris HCl, pH9 containing 1 mM EDTA epitope retrieval was used prior to staining. Appropriate negative (no primary antibody) and positive controls (pancreas) were stained in parallel with each set of slides studied. Peptide competition studies were performed using 2 peptides ([…]*) (SEQ ID NO:115) differing in the methylation status at position L (marked with a *); FIG. 13E: Peptides were incubated at ambient temperature for 60 mins at 10-1000× molar ratios before being applied to the slide. FIG. 13F: Before being stained, slides were incubated in freshly made 200 mM NaOH for 10 mins at 4° C. and then neutralized by several washes in TBST.
Stained slides were scanned using an APERIO AT2 (Leica) and the digital images imported into QuPath (Bankhead et al., 2017). TMA cores were analyzed for percentage of cells staining and intensity. In FIGS. 13E and F, higher visibility of the dark cell nuclei indicates weaker α-carboxymethylated PP2Ac staining.
The assembly of trimeric tumor-suppressive PP2A holoenzymes is promoted/facilitated by PP2Ac α-carboxymethylation. The PP2Ac α-carboxymethylation levels correlate positively with the levels of methylation-sensitive trimeric PP2A holoenzymes. A truly specific anti-methyl-PP2Ac antibody (7C10-C5) can be used to determine the α-carboxymethylated PP2Ac levels in normal and disease tissue by IHC analyses of tissue microarrays of cancer, normal tissues and tissues obtained from other disease states including but not limited to heart disease, Alzheimers disease, and diabetes. The PP2A methylation status in disease tissue can be graded using the Allred scoring system that scores the proportion of cells that stain by IHC as well as the intensity of the IHC staining. […] Allied scoring is calculated the following way: […]

[3] = IHC, mean±standard deviation, 12 samples

B1: 7C10-C5: α-carboxymethylation specific mouse monoclonal IgG1 antibody from single clone hybridoma 7C10-C5 (DSM ACC3350) (antibody)
heavy: MYRMQLLSCIALSLALVTNSDVQLQESGPGLVKPSQSLSLTCSVTGYSITSGYYWNWIRQFPGNKLEWMGYISYDGSNNYNPSLKNRISITRDTSKNQFFLKLNSVTTEDTATYYCAGRFAYWGQGTLVTVSAAKTTAPSVYPLAPVCGDTTGSSVTLGCLVKGYFPEPVTLTWNSGSLSSGVHTFPAVLQSDLYTLSSSVTVTSSTWPSQSITCNVAHPASSTKVDKKIEPRGPTIKPCPPCKCPAPNLLGGPSVFIFPPKIKDVLMISLSPIVTCVVVDVSEDDPDVQISWFVNNVEVHTAQTQTHREDYNSTLRVVSALPIQHQDWMSGKEFKCKVNNKDLPAPIERTISKPKGSVRAPQVYVLPPPEEEMTKKQVTLTCMVTDFMPEDIYVEWTNNGKTELNYKNTEPVLDSDGSYFMYSKLRVEKKNWVERNSYSCSVVHEGLHNHHTTKSFSRTPGK
light: MDMRVPAQLLGLLLLWLSGARCDVLMTQTPLSLPVSLGDQASISCRSSQSIVHSNGNTYLEWYLQKPGQSPKLLIYKVSNRFSGVPDRFSGSGSGTDFTLKINRVEAEDLGVYYCFQGSHVPWTFGGGTKLEIKADAAPTVSIFPPSSEQLTSGGASVVCFLNNFYPKDINVKWKIDGSERQNGVLNSWTDQDSKDSTYSMSSTLTLTKDEYERHNSYTCEATHKTSTSPIVKSFNRNEC
modifications: Amino acid sequence of the recombinant 7C10-C5 heavy chain; Amino acid sequence of the recombinant 7C10-C5 light chain
B1 was tested, and the “detection of PP4c” value ([1]; Western blot of HA immunoprecipitates) was “did not detect”, the “binding to carboxymethylated PP2Ac stronger than to carboxymethylated PP4c” value ([1]; Western blot, suggested since no discernable signal) was 100-fold or even 500-fold and the “average Allred score, localized prostate cancer tissues” value [2, 3] was 2.2±2.3. For the same molecule, the “average Allred score, metastatic prostate cancer tissues” value [2, 3] was 0.4±1.4 and the “discrimination between localized and metastatic prostate cancer by IHC staining” value ([2]; tissue microarray, Allred score) was “significantly lower levels”.
